From paper PMC13216289 (NPJ Vaccines, 2026)
Numbering of substitutions follows the chain as printed.

B1: Ab17, recombinant cattle IgG1/lambda antibody (antibody, V domains shown)
VH: QVQLRESGPSSLKPSQTLSLTCAVSGFSLSTYAVGWVRQAPGKALEWVGDITSSGDTFYNPALKSRFSITKDNSKNQVSLSVGSVTPEDTATFYCTRLTCGDDCSTAWHNFDAWGQGLLVTVSS
VL: SYELTQPTSVSVALGQTAKITCSGDLLDVQYTQWYQQKPGQGPVRVIYKDSERPSGISDRFSGSSSGKTATLIISGAQTEDEADYYCQSTDSSQYGIFGRGTTLTVL
notes: copies: 2 + 2
B2: Fab49, recombinant cattle Fab of Ab49 (Fab, V domains shown)
VH: QVQLRESGPSLVKPSQTLSLTCTVSGFSLTNYAVGWVRQAPGKAIQSLSIISTTGDTYYNPALKSRLSITKDNSKSQVSLSVSSVAPEDTATYYCVKFCGNADSAGHGWGCDYGDNENWGQGLLVTVSS
VL: B1 VL with V29E, I73T, T90F, D91Y, Q94T, Y95D, G96P, I97V, R100S
B3: Ab49, recombinant cattle IgG1/lambda antibody (antibody, V domains shown)
VH: B2 VH
VL: B1 VL with V29E, I73T, T90F, D91Y, Q94T, Y95D, G96P, I97V, R100S
notes: copies: 2 + 2
B4: Fab17, recombinant cattle Fab of Ab17 (Fab, V domains shown)
VH: B1 VH
VL: B1 VL
B5: Ab34, recombinant cattle IgG1/lambda antibody (antibody, V domains shown)
VH: QVQLRESGPSLVKPSQTLSLTCTVSGFSLTDVHVGWVRQTPGKALEWVGVICNRGAIGYNPALESRLSITEDNSKSQVSLSLSSVTTADTATYYCASSCRTEGDVGGDCDSDHFFCAWGQGLLVTVSS
VL: SYELTQPTSVSVALGQTAKITCSGDLLDRQYAQWYQQKPGQGPVRVIYKDSERPSGISDRFSGSSSGKTATLTVSGAQTEDEADYYCHSADSSHYPVFGSGSTLTVL
notes: copies: 2 + 2
B6: Fab34, recombinant cattle Fab of Ab34 (Fab, V domains shown)
VH: B5 VH
VL: B5 VL

Columns and labels:
Assay in all cases: BLI
Details in all cases: both partners purified
[1] = biological target: T1, FMDV A22/IRQ/24/64 virus-like particle, VP2 93C stabilised (FMDV serotype A, A22/IRQ/24/64, stabilised)
T1 construct: copies: 60 + 60 + 60 + 60

[2] = biological target: T2, FMDV O1/Manisa/TUR/69 virus-like particle, VP2 93C stabilised (Foot-and-mouth disease virus …, UniProt Q6PMW3, stabilised)
T2 construct: copies: 60 + 60 + 60 + 60

[3] = biological target: T1, FMDV A22/IRQ/24/64 virus-like particle, …; remark: listed apart in the source
[4] = biological target: T2, FMDV O1/Manisa/TUR/69 virus-like …; remark: listed apart in the source

Binder | Kd [1] [nM] | koff [1] [s⁻¹] | kon [1] [M⁻¹ s⁻¹] | Kd [2] [nM] | koff [2] [s⁻¹] | kon [2] [M⁻¹ s⁻¹] | Kd [3] [nM] | koff [3] [s⁻¹] | kon [3] [M⁻¹ s⁻¹] | Kd [4] [nM] | koff [4] [s⁻¹] | kon [4] [M⁻¹ s⁻¹]
B1 | 0.246 | 0.000164 | 685000 | 0.021 | 7.96e-06 | 303000 |  |  |  |  |  | 
B2 |  |  |  |  |  |  | 4.44 | 0.00349 | 749000 | 6.37 | 0.0029 | 553000
B3 | 0.114 | 3.61e-05 | 389000 | 0.156 | 4.9e-05 | 257000 |  |  |  |  |  | 
B4 |  |  |  |  |  |  | 19.6 | 0.0298 | 1.52e+06 | 5.93 | 0.0117 | 1.19e+06
B5 | 0.0093 |  |  | 0.00904 |  |  |  |  |  |  |  | 
B6 |  |  |  |  |  |  | 9.9 |  |  | 12.3 |  | 
